In doi:10.1101/721233:

Biological target: human TrkA transmembrane domain peptide (TrkA-TM-wt) (human)
Experiment: NMR structure

stoichiometry N: 2
Substance: human TrkA transmembrane domain peptide (TrkA-TM-wt) (domain or fragment)
